Laboratory results from doi:10.1101/2020.05.14.097071.
Like-named read-outs stand apart in the source and are kept apart here.

Columns and labels:
[1] = target: monomeric RAD51 (HumRadA22); test: ITC
[2] = target: monomeric RAD51 (HumRadA22)
[3] = target: monomeric RAD51 (HumRadA22); test: fluorescence polarisation

Kd [1]	Kd [2]	Kd [3]	Substance
11 nM	21 nM	38 nM	GB1-BRC4 (peptide)
		11000 nM	GB1-BRC7-8 (peptide)
5 nM			BRC8-2(S2056A) (peptide)

Further lines, the substance ahead of its results:

Substance	Kd [1]	Kd [2]	Kd [3]
BRC4 with deletion of Lys1530 (peptide)		4100 nM	
GB1-BRC4-5 (peptide)			2100 nM
